Measurements reported in US20200384109A1 (published 2020).

B1: NOV581 (antibody, V domains shown)
VH: QVQLVESGGGLVQPGGSLRLSCVASGFTFSGYNMHWVRQAPGKGLEWVSYISNSGRTIYYADSVKGRFTLSRDNAKNSLYLQMNSLRAEDTAVYFCARDRDPQWLGNDALQIWGQGTMVTVSS
VL: EIVLTQSPGTLSLSPGERATLSCRASQSVSSGYLAWYQQKPGQAPRLLIYGASSRATGIPDRFSGSGSGTDFTLTISRLEPEDFAVYYCQQYGTSRKTFGQGTKVEIKR
B2: NOV530 (antibody, V domains shown)
VH: QVQLQESGPGLVKPSQTLSLTCTVSGGSISGGGYYWSWIRQHPGKGLEFIGYIYYNRGTYYNPALKSRLTISVDTSKNDFSLKLSSVSAADTAVYYCARCVLGGYGSDAFDRWGQGTTVTVAS
VL: EIVLTQSPVTLSLSPGERAILSCRASQSVSSHLAWYQQKPGQAPRLLIYDASSRANGIPARFSGSGSGTDFTLTISSLAPEDFAVYYCQQRSSWPPSLTFGGGTKVEIRR
B3: NOV796 (antibody, V domains shown)
VH: QVQLVQSGPGLVKPSETLSLTCSVSGGSISGYYWSWIRQPPGKGLEWIGLIYESGSANYNPSLKSRVTISLDTSKNQFSLKLKSVTAADTAVYYCARRVRGWSYGMDVWGQGTTVAVSS
VL: DIVLTQSPGTLSLSPGETATLSCRASQILSSSFLAWFQQIPGQAPRLLIYAASSRATGIPDRFSGSGSGTDFSLTISRLEPEDFAVYYCQHYGSSPPWTFGQGTKVEIKR

How the values were obtained:
Experiment in all cases: SET
[1] = molecular target: BKV serotype IV (ST4) virus-like particles (VLPs) (UniProt P14996 1-362)
[2] = molecular target: BKV serotype III (ST3) virus-like particles (VLPs) (UniProt P14996 1-362)
[3] = molecular target: BKV serotype II (ST2) virus-like particles (VLPs) (UniProt P14996 1-362)
[4] = molecular target: BKV serotype I (ST1) virus-like particles (VLPs) (UniProt P03088 1-362)

Binder | Kd [1] | Kd [2] | Kd [3] | Kd [4]
B1 | > 6.6 nM | 0.092 nM | 0.069 nM | 0.044 nM
B2 | – | – | – | 0.015 nM
B3 | 0.0009 nM | 0.007 nM | 0.006 nM | 0.003 nM
